Test results as given in the MegaScale stability set (Tsuboyama et al. 2023).

B1: 6NMW (parent)
chain: QGDIVVALYPYDGIHPDDLSFKKGEKMKVLEEHGEWWKAKSLLTKKEGFIPSNYVAKLN

Variants of: B1
Assay: folding stability dG (cDNA display proteolysis); higher = more stable
Settings: PBS, room temperature

Folding stability dG [kcal/mol]: each site, then its substitutions
K28: N 2.02 | T 3.27 | R 4.26 | H 3.02 | C 3.9 | A 3.21 | W 4.43 | D 1.21 | M 4.6 | E 4.07 | G 1.31 | V 4.85 | S 2.77 | F 3.91 | Y 4.2
K22: A 3.17 | V 3.82 | H 2.66 | L 3.21 | W 1.45 | T 3.15 | C 3.28 | E 3.06 | Y 2.29 | F 2.5 | N 2.67 | P 0.747 | S 3.08 | G 2.74 | D 2.71 | I 3.84 | R 3.65 | Q 3.49 | M 3.46
G24: E 1.16 | M 1.07 | L 1.02 | N 2.19 | S 1.3 | Y 2.25 | Q 0.576 | F 2.13 | R 0.941 | W 2.51 | D 2.1 | C 3.62 | T 0.282 | K 0.476 | H 2.15 | A 1.25
H33: L 3.41 | P 1.43 | V 3.16 | C 4.43 | F 3.74 | I 3.23 | Y 3.6 | M 3.29 | N 3.62 | A 3.01 | W 3.34 | T 3.12 | G 3.24 | D 2.75 | R 3.41 | K 3.38 | Q 3.06
V29: P 0.224 | F 1.05 | W -0.028 | S -0.702 | L 4.64 | K 1.25 | Y 0.219 | Q 0.108 | M 1.93 | T 0.988 | R 0.08 | A 0.496 | C 1.16
G34: A 2.02 | E 1.86 | I 1.4 | L 1.52 | R 1.65 | H 1.67 | F 1.15 | S 2 | Q 1.74 | N 2.22 | V 1.41 | K 1.84 | T 1.48 | Y 1.45 | C 2.75 | M 1.59 | D 1.96 | P 1.5 | W 1.24
E25: H 0.959 | V -0.121 | D 2.36 | T 0.615 | G -0.389 | Y 0.16 | S 0.621 | I -0.618 | F -0.064 | M 0.74 | Q 0.918 | R 0.331 | N 0.344 | C 1.3 | W 1.22 | A 1.21 | L -0.25
D18: H 4.91 | P 0.221 | N 2.88 | A 3.61 | M 3.67 | C 4.07 | L 2.84 | W 3.29 | R 3.15 | F 4.07 | V 3.08 | K 3.08 | E 4.6 | G 3.33 | Y 4.04 | Q 4.95 | I 2.69 | S 3.94 | T 3.97
L30: G 0.263 | Q 1.56 | H 0.943 | C 2.42 | T 2.04 | K 0.883 | I 3.29 | E 1.21 | R 0.866 | V 2.34 | S 1.5 | Y 2.27 | M 2.85 | D 0.53 | A 1.01 | W 1.5 | N 0.519 | F 2.37
M27: C 0.54 | W -0.174 | Q -0.878 | H -0.396 | V 0.125 | Y -0.162 | F 3.72 | I 1.74
E31: L 2.67 | Y 3.07 | K 2.67 | T 2.69 | Q 3.11 | V 2.64 | G 2.77 | H 2.63 | R 2.56 | C 4.09 | A 3.46 | I 2.98 | W 3.2 | M 3.05 | P -0.549 | D 3.05 | F 3.14
L19: I 1.46 | S -0.898 | A -0.055 | R -0.083 | C 0.728 | D -0.824 | F 1.02 | T 0.168 | N -0.23 | W 0.23 | P -0.243 | M 2.12 | Y 0.613 | V 0.435
D17: F 3.71 | L 3.6 | I 2.2 | N 3.83 | T 3.68 | A 3.37 | Q 3.88 | W 4.86 | P 2.35 | R 4.21 | G 4.77 | Y 3.92 | C 4.33 | E 3.72 | M 3.47 | H 3.78 | S 3.63 | V 2.23 | K 3.5
K26: W 4.72 | V 4.19 | N 2.15 | S 2.3 | D 0.255 | Q 3.56 | P 2.39 | M 4.51 | H 4.3 | A 2.78 | E 2.52 | F 4.75 | Y 4.84 | G 1.11 | I 4.68 | T 3.12 | C 4.34
W36: I 3.52 | D 0.269 | E 1.14 | H 2.3 | G 0.695 | A 1.68 | K 3.49 | C 3.06 | F 3.29
F21: M 1.22 | V 1.74 | C 0.758 | Y -0.495 | Q -0.217 | L -0.236 | W -0.416 | I 0.968
E35: K 3.94 | R 3.59 | C 4.75 | W 4.11 | N 4.01 | Q 3.92 | H 4.61 | M 4.06 | G 3.14 | A 4.01 | T 3.73 | S 3.82 | L 4.23 | P 3.64 | Y 4.96 | V 3.94 | I 3.97
P16: G 2.75 | Y 2.59 | W 2.79 | F 2.73 | K 3.4 | S 2.98 | Q 3.08 | N 2.68 | R 2.87 | I 3 | L 2.7 | V 3.11 | T 2.87 | M 2.81 | D 3.22 | H 2.92
E32: Q 4.09 | P 2.54 | T 3.95 | M 4.65 | H 3.54 | C 4.44 | R 4.29 | N 3.83 | K 4.72 | L 4.21 | G 3.33 | Y 4.42 | D 4.38 | V 4.48 | I 4.6 | F 4.1 | A 4.31 | W 3.48
K23: I 2.95 | D 1.3 | T 2.75 | W 2.06 | N 1.18 | R 3.33 | P 2.02 | Y 2.51 | E 2.88 | C 3.59 | V 3.39 | S 2.34 | A 3.39 | M 2.89 | H 1.85 | Q 3.22 | L 2.79 | G 1.64 | F 2.42
S20: Q 2.27 | F 1.18 | P 2.81 | H 2.03 | N 2.01 | K 2.48 | L 1.15 | C 2.77 | M 1.88 | G 2.01 | W 1.65 | D 1.82 | V 2.33 | A 2.64 | T 3.13 | I 2.09 | E 1.75 | Y 1.22 | R 2.23
